The results in this text go back to patent publication US20220396632A1 (VERSEAU THERAPEUTICS, published 2022).

The target in assay [1] is T1, Sulfotyrosine CCR2b biotin peptide (human).
T1 construct: also called CCR2b peptide
T1 peptide: TTFFD[sY]D[sY]GAPSHGGK(Biotin)
Description: ELISA, 50 nM mAb. As for the experimental part:
(§1) Recombinant PSGL-1-hFc1 chimera protein consisting of PSGL-1's extracellular domain (ECD) served as a positive control. […] Primary antibody was added (25 ul per well) in duplicate at 50 nM in assay buffer (blocking buffer containing 0.05% Tween®20) into test and control (just blocked) wells and the plate incubated for 45 min at 37° C.
In general terms: An ELISA detects its analyte on a solid surface through an enzyme-linked reagent.

Assay [2] addresses T2, Sulfotyr fibrinogen γ peptide (not fully specified; Y8 and Y12 sulfated (SO3); C-terminal biotin).
T2 construct: also called Fibrinogen gamma peptide; human sulfotyrosinylated fibrinogen peptide
T2 peptide: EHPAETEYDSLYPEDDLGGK
Description: ELISA, 50 nM mAb. As for the experimental part: as §1

Assay [3] has as its target T3, Recombinant human PSGL-1(ECD)-hFc1 (R&D Systems, Cat. 3345-PS) (human, UniProt Q14242 42-305).
T3 construct: Bought; Gln42-Val295 counted on AAC50061; also called PSGL-1-Fc; PSGL-1-hFc1 chimera; not shown: human IgG1 Fc, Pro100-Lys330
T3 sequence: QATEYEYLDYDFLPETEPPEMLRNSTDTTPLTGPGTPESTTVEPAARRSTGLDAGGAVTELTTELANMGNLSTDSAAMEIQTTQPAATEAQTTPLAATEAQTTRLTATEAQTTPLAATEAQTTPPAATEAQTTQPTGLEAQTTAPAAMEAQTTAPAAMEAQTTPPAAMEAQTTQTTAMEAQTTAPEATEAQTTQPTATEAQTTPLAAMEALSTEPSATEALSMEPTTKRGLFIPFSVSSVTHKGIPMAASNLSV
Description: ELISA, 50 nM mAb. The method, then: as §1

Assay [4] deals with T4, Biotin Y46,48,51(SO3) PSGL-1(42-62) peptide (human, sulfotyrosine at Y46, Y48 and Y51; C-terminal Lys-biotin).
T4 construct: also called fully sulfated N-terminal PSGL-1 peptide
T4 peptide: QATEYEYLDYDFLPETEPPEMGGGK
Description: ELISA, immobilized biotin peptide. Put shortly:
(§2)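 In this ELISA, half-well high binding plates (Corning Cat. #3690) received 3 ug/mL/25 ul per well of biotin-tagged PSGL-1 peptides covering residues 42 to 62, diluted in PBS, pH 7.4, and coated overnight at 4° C. Duplicate readings for each antibody were averaged and the average assay background was subtracted. PSGL-1 protein or peptide was the positive control.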

In assay [5] the target is T5, Biotin PSGL-1(42-62) peptide, unmodified (human, C-terminal Lys-biotin).
T5 construct: Residues 42-62 followed by GGGK-biotin; also called WT; wild-type
T5 peptide: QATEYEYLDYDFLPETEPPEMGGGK
The assay is described as follows: ELISA, immobilized biotin peptide. Put shortly: as §2

Assay [6] has as its target T6, Scrambled Y42,52,63(SO3) PSGL-1(42-62) biotin peptide (sulfotyrosine at peptide positions 1, 11 and 22; C-terminal Lys-biotin).
T6 peptide: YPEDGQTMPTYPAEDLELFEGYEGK
The assay is described as follows: ELISA, immobilized biotin peptide. Put shortly:
as §2

In assay [7] the target is T7, Cynomolgus PSGL-1(ECD)-hFc1 (cynomolgus macaque).
T7 construct: also called Cyno PSGL1-Fc; Cyno PSGL-1(ECD)-Fc
The assay is described as follows: ELISA, 20 nM mAb on plate cyno PSGL-1(ECD)-Fc. Put shortly:
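Immobilized cyno PSGL-1 ECD (3 ug/mL coating, PBS pH 7.4, overnight 4° C.) is probed with anti-PSGL-1 IgG at 20 nM or over 0.003-200 nM for 45 min at 37° C. Read-out is A450 nm via HRP/TMB.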

Broadly, the EC50 is the concentration at which the effect is half-maximal.

Changes are numbered by the printed parent chain. Non-standard residues stand in square brackets, D forms with d. No end group written: not given here. *: point of attachment. Biotin = O=C1N[C@H]2[C@H](CS[C@H]2CCCCC(=O)*)N1; sY = N[C@@H](Cc1ccc(OS(=O)(=O)O)cc1)C(=O)O Some results are limits rather than exact numbers.

B1: 09D04 (antibody, IgG4, V domains shown)
VH: QVQLQQSGGGLVQPGGSLTLSCVGSGFDFRSYAMSWVRQAPGKGLEWVSGINNSGSKTYYADFVKGRFSVSRDNSKNIVWLRMRSLRAEDTAVYYCARRTFGPPHAWGQGTMVTVSS
VL: DVVMTQSPLSLPVTPGEPASISCRSSQSLLHSNGYTYLEWYLHKPGQSPQLLIYLGSNRASGVPDRFSGSGSGTDFTLKISRVEAEDVGVYYCMHSLHIPFTFGPGTKVDIK
As to B1, the figures for the “binding normalized to PSGL-1” value in assay [1] and in assay [2] were 0.37 and 0.49, respectively. The A450nm in assay [3] turned out to be 2.66 A450nm; in assay [7] it was 1.93 A450 nm. For the same molecule, the “A450nm, 20 nM mAb” value in assay [4] is 2.63 A450nm; in assay [6], 0.05 A450nm. In addition, the EC50 in assay [4] is 0.07 nM; in assay [5] it was around 0.05 nM. In assay [6], the binding result is “no binding (tested: 20 nM)”.

B2: 05H03 (antibody, IgG4, V domains shown)
VH: B1 VH
VL: DIVMTQSPLSLSVTPGEPASISCRSSQSLLHSNGYKYLDWYLQKPGQSPQLLIYMGSNRASGVPDRFSGSGSGTDFTLKISRVEAEDVGVYYCMQGLQSPLTFGGGTKVEIE
Consider B2, for which the “binding normalized to PSGL-1” value in assay [1] was 0.45; in assay [2] it was 0.68. In addition, the results for the A450nm in assay [3] and in assay [7] were 2.58 A450nm and 2.01 A450 nm, respectively. Moreover, the “A450nm, 20 nM mAb” value was determined as 2.77 A450nm in assay [4] and 0.04 A450nm in assay [6]. Besides, the EC50 in assay [4] and in assay [5] was around 0.02 nM in each case. Besides, the binding result in assay [6] is “no binding (tested: 20 nM)”.

B3: 11D10 (antibody, IgG4, V domains shown)
VH: EVKLLESGGGLVQPGGSLRLSCAVSGFTFSTSAMIWVRQAPGKGLEWVSFISGSTSNTYYADSVKGRFTISRDNSKNTLYLQMNGLTAEDTAVYYCARGTAAATWGQGALVTVSS
VL: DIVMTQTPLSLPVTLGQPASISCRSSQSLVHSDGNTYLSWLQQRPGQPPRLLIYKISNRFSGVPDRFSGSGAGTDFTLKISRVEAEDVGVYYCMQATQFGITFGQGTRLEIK
Consider B3, for which the results for the “binding normalized to PSGL-1” value in assay [1] and in assay [2] were 0.04 and 0.26, respectively. In addition, the values for the A450nm in assay [3] and in assay [7] were 2.38 A450nm and 1.4 A450 nm, respectively. Also, the “A450nm, 20 nM mAb” value in assay [4] was found to be 2.52 A450nm. Besides, the 50% effective concentration (EC50) was 0.65 nM in assay [4] and 0.51 nM in assay [5]. Further, the binding result in assay [6] is “no binding (tested: 20 nM)”.

B4: 09A08 (antibody, IgG4, V domains shown)
VH: QVQLVQSGAAVKKPGESLKISCKGSGYTFSNYWIGWVRQMPGKGLEWMGIIYPGDSDTRYSPSFQGQVTISADKSISTAYLQWSSLKASDTAMYYCARHIVGPPKSAFDIWGQGTMVTVSS
VL: DIVMTQTPLSLPVTLGQPASISCSSSQGLQKRDGNTYLNWFQQRPGQSPRRLIYKVSNRDSGVPDRFSGSGSGTDFTLKISRVEAEDVGVYYCMQGTHWPWTFGQGTRVEIK
B4: the “binding normalized to PSGL-1” value is 0.08 in assay [1] and 0.14 in assay [2]. For the same molecule, the figures for the A450nm in assay [3] and in assay [7] were 2.49 A450nm and 1.18 A450 nm, respectively. Also, the “A450nm, 20 nM mAb” value in assay [4] amounted to 2.43 A450nm. In addition, the EC50 in assay [4] was 0.1 nM; in assay [5], above 500 nM. For the same molecule, the binding result in assay [6] is listed as “no binding (tested: 20 nM)”.

B5: 07E07 (antibody, IgG4, V domains shown)
VH: QVQLQQSGAEVKKPGASVKVSCKASGYTFTSYYMHWVRQAPGQGLEWMGIINTSSGSTKYAQRFQDRVTVTRDTSTTTVYMELNSLRSEDTAVYYCARGGRAYSGSFDNWGQGTLVTVSS
VL: B4 VL with I2V, T7S, S24R, G28S, Q30V, K31H, L38F, G96A, W101R, R108K
In the case of B5, the “binding normalized to PSGL-1” value was found to be 0.75 in assay [1] and 1.04 in assay [2]. Further, the A450nm in assay [3] came out at 2.44 A450nm; in assay [7], 0.38 A450 nm. Moreover, the results for the “A450nm, 20 nM mAb” value in assay [4] and in assay [6] were 2.77 A450nm and 0.01 A450nm, respectively. The figures for the EC50 in assay [4] and in assay [5] were 0.15 nM and above 500 nM, respectively. Moreover, the binding result in assay [6] is listed as “no binding (tested: 20 nM)”.

B6: 09A02 (antibody, IgG4, V domains shown)
VH: EVQLVQSGGGLVKPGGSLRLSCAASGFTFRTAWMSWVRQAPGKGLEWVGRMKSKNDGGTTDYAAPVKGRFTISRDDSRDTVYLQMNSLKTEDTGVYYCATYAAGATVPWGQGTLVTVSS
VL: DIVMTQTPLSAPVTLGQPASISCRSSRSLLQRNGYNYVDWYQQKAGNPPRLLIYLGSRRASGVPDRFSGSGSDKDFTLKISRVEADDVGFYFCKQSLQAPPTFGGGTKIEIT
Regarding B6, the “binding normalized to PSGL-1” value stood at 0.93 in assay [1] and 1.06 in assay [2]. The A450nm in assay [3] is 2.51 A450nm; in assay [7], 0.73 A450 nm. Also, the figures for the “A450nm, 20 nM mAb” value in assay [4] and in assay [6] were 2.82 A450nm and 0.03 A450nm, respectively. The EC50 is 0.51 nM in assay [4] and around 500 nM in assay [5]. For the same molecule, the binding result in assay [6] is recorded as “no binding (tested: 20 nM)”.

B7: 03F03 (antibody, V domains shown)
VH: QVQLQESGPGLVKPSETLSLTCTVSGGSISSSSYYWGWIRQPPGKGLEWIGSIYYSGSTYYNPSLKSRVTISVDTSKNQFSLKLSSVTAADTAVYYCARSRPRPWAFDIWGQGTMVTVSS
VL: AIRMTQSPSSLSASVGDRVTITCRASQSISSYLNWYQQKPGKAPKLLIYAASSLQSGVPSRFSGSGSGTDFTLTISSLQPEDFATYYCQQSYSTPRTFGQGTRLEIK
For B7, the “binding normalized to PSGL-1” value in assay [1] turned out to be 1.21; in assay [2], 1.33. In addition, the A450nm in assay [3] turned out to be 2.12 A450nm; in assay [7], 0.58 A450 nm. The “A450nm, 20 nM mAb” value is 2.54 A450nm in assay [4] and 0.03 A450nm in assay [6]. For the same molecule, the 50% effective concentration (EC50) was 0.08 nM in assay [4] and above 500 nM in assay [5]. The binding result in assay [6] was “no binding (tested: 20 nM)”.

B8: 05C02 (antibody, V domains shown)
VH: EVKLLESGGGVVQPGRSLRLSCAASGFTFKNFAMHWVRQAPGKGLEWVAVISYDGSSEDYADSVKGRFTLSRDNAKNSLYLQMNNLRAEDTAVYYCARGRRPDYWGQGTLVTVSS
VL: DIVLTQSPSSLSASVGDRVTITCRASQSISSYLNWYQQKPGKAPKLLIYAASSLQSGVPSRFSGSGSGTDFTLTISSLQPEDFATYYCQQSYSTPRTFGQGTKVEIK
As for B8, the “binding normalized to PSGL-1” value was found to be 0.06 in assay [1] and 0.42 in assay [2]. The A450nm in assay [3] amounted to 2.27 A450nm; in assay [7], 0.64 A450 nm. Moreover, the “A450nm, 20 nM mAb” value in assay [4] was 2.8 A450nm. In addition, the EC50 in assay [4] is around 0.01 nM; in assay [5], 3 nM. For the same molecule, the binding result in assay [6] is given as “no binding (tested: 20 nM)”.

B9: 05A11 (antibody, IgG4, V domains shown)
VH: EVKLLESGGGVVQPGRSLRLSCAASGFSFSAYGMHWVRQAPGKGLEWVSSISGSGDGTYYADSVKGRFTISRDNSKNTLYLQMNSLRAEDAAVYYCAKSVKGRGYFFDYWGQGTLVTVSS
VL: DIVLTQSPSSLSASVGDRVTITCRASQSISSYLNWYQQKPGKAPKLLIYAASSLQSGVPSRFSGSGSGTDFTLSISNLQPEDFATYYCQQAYKFPRSFGGGTKVEFK
With B9, the results for the “binding normalized to PSGL-1” value in assay [1] and in assay [2] were 0.09 and 0.87, respectively. Further, the A450nm worked out at 1.99 A450nm in assay [3] and 0.7 A450 nm in assay [7]. In addition, in assay [4], the “A450nm, 20 nM mAb” value turned out to be 2.52 A450nm. The EC50 is around 0.025 nM in assay [4] and around 500 nM in assay [5]. For the same molecule, the binding result in assay [6] is “no binding (tested: 20 nM)”.

B10: 05D01 (antibody, V domains shown)
VH: QVTLRESGGALVQPGGSLRLSCAASGFPLRSNAMTWVRQAPGKGLEWVSDIRGNGASTYYADSVKGRFTISRDDSNNILFLQMNSLRAEDTAVYYCVGHGSSSYWGQGTLVTVSS
VL: DVVMTQSPLSLPVTLGQPASISCRSSQSLVYRDGNIYLNWFQQRPGQSPRRLIYKVSNRDSGVPDRFSGSGSGTDFTLKISRVEAEDVGVYYCMQLTHWPPGFAQGTKLEIK
Turning to B10, the “binding normalized to PSGL-1” value in assay [1] came out at 0.17; in assay [2], 0.89. In addition, the A450nm in assay [3] came to 2.33 A450nm; in assay [7] it was 1.38 A450 nm. The “A450nm, 20 nM mAb” value in assay [4] was found to be 2.85 A450nm; in assay [5] it was 1.33 A450nm; in assay [6], 0.01 A450nm. Moreover, in assay [6], the binding result is on record as “no binding (tested: 20 nM)”.
